B1: human synthetic scFv fragment 1 (scFv)
scFv: EVQLLESGGGLVQPGGSLRLSCAASGFTFSSYAMSWVRQAPGKGLEWVSAISGSGGSTYYASVKGRFTISRDNSKNTLYLQMNSLRAEDTAVYYCARHYYNWASGYFDYWGQGTLVTVSSGGGGSGGGGSGGGGSDIQMTQSPSSLSASVGDRVTITCRASQSISSYLNWYQQKPGKAPKLLIYAASSLQSGVPSRFSGSGSGTDFTLTISSLQPEDFATYYCQQGWYPPTFGQGTKLEIKR
notes: also called scFv 1
B2: human synthetic scFv fragment 10 (scFv)
scFv: EVQLLESGGGLVQPGGSLRLSCAASGFTFSSYAMSWVRQAPGKGLEWVSAISGSGGSTYYASVKGRFTISRDNSKNTLYLQMNSLRAEDTAVYYCARYSYYYTWLDYWGQGTLVTVSSGGGGSGGGGSGGGGSDIQMTQSPSSLSASVGDRVTITCRASQSISSYLNWYQQKPGKAPKLLIYAASSLQSGVPSRFSGSGSGTDFTLTISSLQPEDFATYYCQQFYPSLHTFGQGTKLEIKR
notes: also called scFv 10
B3: human synthetic scFv fragment 11 (scFv)
scFv: EVQLLESGGGLVQPGGSLRLSCAASGFTFSSYAMSWVRQAPGKGLEWVSAISGSGGSTYYASVKGRFTISRDNSKNTLYLQMNSLRAEDTAVYYCARYTYYVGGFDYWGQGTLVTVSSGGGGSGGGGSGGGGSDIQMTQSPSSLSASVGDRVTITCRASQSISSYLNWYQQKPGKAPKLLIYAASSLQSGVPSRFSGSGSGTDFTLTISSLQPEDFATYYCQQGFVLSTFGQGTKLEIKR
notes: also called scFv 11
B4: human synthetic scFv fragment 12 (scFv)
scFv: EVQLLESGGGLVQPGGSLRLSCAASGFTFSSYAMSWVRQAPGKGLEWVSAISGSGGSTYYASVKGRFTISRDNSKNTLYLQMNSLRAEDTAVYYCARTYYYFYPYGYYFDYWGQGTLVTVSSGGGGSGGGGSGGGGSDIQMTQSPSSLSASVGDRVTITCRASQSISSYLNWYQQKPGKAPKLLIYAASSLQSGVPSRFSGSGSGTDFTLTISSLQPEDFATYYCQQGFYLPTFGQGTKLEIKR
notes: also called scFv 12
B5: human synthetic scFv fragment 2 (scFv)
scFv: EVQLLESGGGLVQPGGSLRLSCAASGFTFSSYAMSWVRQAPGKGLEWVSAISGSGGSTYYASVKGRFTISRDNSKNTLYLQMNSLRAEDTAVYYCARTTSYYGYSAHFIDYWGQGTLVTVSSGGGGSGGGGSGGGGSDIQMTQSPSSLSASVGDRVTITCRASQSISSYLNWYQQKPGKAPKLLIYAASSLQSGVPSRFSGSGSGTDFTLTISSLQPEDFATYYCQQGYGPFTFGQGTKLEIKR
notes: also called scFv 2
B6: human synthetic scFv fragment 3 (scFv)
scFv: EVQLLESGGGLVQPGGSLRLSCAASGFTFSSYAMSWVRQAPGKGLEWVSAISGSGGSTYYASVKGRFTISRDNSKNTLYLQMNSLRAEDTAVYYCARVYYHYYYYGSFDYWGQGTLVTVSSGGGGSGGGGSGGGGSDIQMTQSPSSLSASVGDRVTITCRASQSISSYLNWYQQKPGKAPKLLIYAASSLQSGVPSRFSGSGSGTDFTLTISSLQPEDFATYYCQQSTHLSTFGQGTKLEIKR
notes: also called scFv 3
B7: human synthetic scFv fragment 5 (scFv)
scFv: EVQLLESGGGLVQPGGSLRLSCAASGFTFSSYAMSWVRQAPGKGLEWVSAISGSGGSTYYASVKGRFTISRDNSKNTLYLQMNSLRAEDTAVYYCARSYSWYSRGPSLDYWGQGTLVTVSSGGGGSGGGGSGGGGSDIQMTQSPSSLSASVGDRVTITCRASQSISSYLNWYQQKPGKAPKLLIYAASSLQSGVPSRFSGSGSGTDFTLTISSLQPEDFATYYCQQAFYAHLLTFGQGTKLEIKR
notes: also called scFv 5
B8: human synthetic scFv fragment 6 (scFv)
scFv: EVQLLESGGGLVQPGGSLRLSCAASGFTFSSYAMSWVRQAPGKGLEWVSAISGSGGSTYYASVKGRFTISRDNSKNTLYLQMNSLRAEDTAVYYCARYVRGYGYGYLDYWGQGTLVTVSSGGGGSGGGGSGGGGSDIQMTQSPSSLSASVGDRVTITCRASQSISSYLNWYQQKPGKAPKLLIYAASSLQSGVPSRFSGSGSGTDFTLTISSLQPEDFATYYCQQAPAYSPFTFGQGTKLEIKR
notes: also called scFv 6
B9: human synthetic scFv fragment 7 (scFv)
scFv: EVQLLESGGGLVQPGGSLRLSCAASGFTFSSYAMSWVRQAPGKGLEWVSAISGSGGSTYYASVKGRFTISRDNSKNTLYLQMNSLRAEDTAVYYCARYTHSTYGYRLDYWGQGTLVTVSSGGGGSGGGGSGGGGSDIQMTQSPSSLSASVGDRVTITCRASQSISSYLNWYQQKPGKAPKLLIYAASSLQSGVPSRFSGSGSGTDFTLTISSLQPEDFATYYCQQDAYHPPTFGQGTKLEIKR
notes: also called scFv 7; AK7
B10: human synthetic scFv fragment 8 (scFv)
scFv: EVQLLESGGGLVQPGGSLRLSCAASGFTFSSYAMSWVRQAPGKGLEWVSAISGSGGSTYYASVKGRFTISRDNSKNTLYLQMNSLRAEDTAVYYCARVFYYGPYYFSYHFDYWGQGTLVTVSSGGGGSGGGGSGGGGSDIQMTQSPSSLSASVGDRVTITCRASQSISSYLNWYQQKPGKAPKLLIYAASSLQSGVPSRFSGSGSGTDFTLTISSLQPEDFATYYCQQDDRGLPTFGQGTKLEIKR
notes: also called scFv 8
B11: human synthetic scFv fragment 9 (scFv)
scFv: EVQLLESGGGLVQPGGSLRLSCAASGFTFSSYAMSWVRQAPGKGLEWVSAISGSGGSTYYASVKGRFTISRDNSKNTLYLQMNSLRAEDTAVYYCARSHYGSLDYWGQGTLVTVSSGGGGSGGGGSGGGGSDIQMTQSPSSLSASVGDRVTITCRASQSISSYLNWYQQKPGKAPKLLIYAASSLQSGVPSRFSGSGSGTDFTLTISSLQPEDFATYYCQQFSYTLSTFGQGTKLEIKR
notes: also called scFv 9

Molecular target: T1, purified prostasomes (from human seminal plasma) (human)
T1 construct: Not a single protein: exosome-type vesicle purified from seminal plasma
Experiment: direct ELISA, coated purified prostasomes, biotinylated scFv at 4 µg/mL, streptavidin-HRP
Method: The wells were washed three times with PBS containing 0.05% Tween 20. Addition of biotinylated human synthetic scFv fragments 1:250 in row A were made and then 1:5 dilutions downwards. The plates were then incubated for 2 h at room temperature and then washed three times with PBS containing 0.05% Tween 20. 100 μL Streptavidine-HRP was added to the wells and incubated for 2 h at room temperature. The wells were washed three times with PBS containing 0.05% Tween 20. 100 μL TMB (tetramethylbenzidine) substrate was added to the wells, and incubated for 20 min and 25 μL 1 M H2SO4 was added to the plate. The plate was read at 450 nm.
Seminal plasma was collected from the Reproduction Centre at Akademiska Hospital (Uppsala, Sweden) following previously described routines (Ronquist, G. K., et al., Prostasomal DNA characterization and transfer into human sperm. Mol Reprod Dev, 2011. 78 (7): p. 467-76). The seminal plasma was thawed and centrifuged at 3,000 g for 12 min. The supernatants were collected and centrifuged at 10,000 g for 30 min. The supernatants were then transferred to new tubes and ultra-centrifuged using a 90Ti rotor (Beckman Coulter, Brea, Calif., USA) at 100,000 g for 2 h. The pellets were resuspended in 0.02 M NaH2PO4, 0.15 M NaCl, pH 7.2 (PBS), overnight at 4° C. The resuspended pellets were then loaded on a chromatography column (XK 60/70, GE Healthcare, Uppsala, Sweden) packed with Superdex 200 gel. Fractions were collected at a flow rate of 5 mL/h. The fractions were then measured with a spectrophotometer where peaks at both 260 nm (nucleic acid) and 280 nm (proteins) corresponds to prostasomes. These fractions were collected and pooled and ultra-centrifuged at 100,000 g. The obtained pellet was resuspended in PBS. The purified prostasomes (1 mg/ml were diluted 1:250 in PBS and 100 μL were added per well in a F96 Polysorb NUNC Immunoplate (Thermo Fisher Scientific, Uppsala, Sweden). The plates were incubated for 2 h at ambient temperature and then washed three times with PBS containing 0.05% Tween 20 (P1379, Sigma-Aldrich). 120 μL 1% bovine serum albumin (BSA, Sigma-Aldrich) in PBS were added to the wells and the plate was incubated over night at ambient temperature. The plate was washed three times with PBS containing 0.05% Tween 20. 100 μL of the biotinylated monoclonal antibodies were added in dilution of 4 μg/mL in PBS to the wells.

Binder | Absorbance [absorbance at 450 nm]
B1 | 0.643
B2 | 1.64
B3 | 0.066
B4 | 0.954
B5 | 0.394
B6 | 0.903
B7 | 0.617
B8 | 0.556
B9 | 1.36
B10 | 0.653
B11 | 1.29

From patent US20230093265A1 (PROSMEDIC SWEDEN, published 2023)
